From patent publication US12202905B2, “Methods and compositions relating to adenosine receptors” (Twist Bioscience Corporation, priority 2021, dated 2025)

Legend:
[1] = target: T1, A2AR (Homo sapiens, UniProt P29274); assay: T cell activation assay (PBMCs, NECA, anti-CD3ε/CD28 beads, IFN-γ release); assay type: cell-based; set-up: endogenous in cells; host or cells: PBMCs; settings: for T cell activation: NECA 1 μM, IFN-γ release
Experimental: The cells were then activated by magnetic beads coating with anti-CD3ε/CD28 antibodies. Three days after incubation, the supernatant was collected for detecting IFN-γ release and evaluating T cell activation. ZM-241385 is potent and used as a selective small molecule A2A antagonist control.
A primary T-cell activation assay was performed as described above. Data is seen in FIG. 33D and Table 21.

[2] = target: T1, A2AR; assay: A2AR cell functional cAMP assays (allosteric and antagonistic); settings: NECA titration, IgG titration (NECA 0.5 uM), IgG titration (NECA 10 uM)
Experimental: Allosteric and Antagonistic cAMP Assays were Performed Using A2A Cell Lines

[3] = target: T2, A2b (Homo sapiens, UniProt P29275); assay: A2b functional antagonistic cAMP assay (CHO-K1 cells); assay type: cell-based; settings: IgG 3× titration from 1000 nM, NECA 5 nM
T2 construct: expressed in transfected cells; host or cells: CHO-K1
T2 sequence (P29275 1-332): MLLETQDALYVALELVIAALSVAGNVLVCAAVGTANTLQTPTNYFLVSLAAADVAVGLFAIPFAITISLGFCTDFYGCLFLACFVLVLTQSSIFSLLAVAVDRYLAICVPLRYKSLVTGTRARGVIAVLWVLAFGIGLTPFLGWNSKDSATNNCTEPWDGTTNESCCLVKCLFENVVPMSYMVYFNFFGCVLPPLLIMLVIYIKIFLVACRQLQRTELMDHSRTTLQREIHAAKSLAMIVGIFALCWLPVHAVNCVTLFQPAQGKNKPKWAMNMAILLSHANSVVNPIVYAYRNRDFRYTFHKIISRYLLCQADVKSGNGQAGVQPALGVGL
Experimental: FIG. 46 depicts the functional cAMP assay performed on selected A2b antibodies. CHO-K1 cells were incubated with an A2b antibody. Next, the cells were stimulated using NECA. Activation of A2b was monitored based on 3′-5′-cyclic adenosine monophosphate (cAMP) production in the cell lines.
First, cells were pre-incubated with A2A-17, A2A-19, A2A-26, A2A-27, A2A-35, A2A-36, and A2A-83 at a 3× titration starting at 100 nM. […] The results are depicted in FIGS. 47B-47C.
An antagonistic cAMP assay at high levels of IgC and low ligand levels was performed. Cells were pre-incubated with A2A-17, A2A-19, A2A-26, A2A-27, A2A-35, A2A-36, A2A-83, and A2A-72 at a 3× titration starting at 1000 nM. […] The results are depicted in FIG. 47D. […] Properties of A2b are depicted in Table 23.

[4] = tested on: human colon carcinoma (Colo205); assay: In vivo colon carcinoma model, tumor volume; settings: mice with Colo205, tumor volume over 30 days
Experimental: Mice with human colon carcinoma (Colo205) were divided into 4 groups. Group 1 was the isotype control, Group 2 mice were treated with Anti-PD1, Group 3 mice were treated with variant A2A-77 and Group 4 mice were treated with variant A2A-81. Tumor volume is measured over 30 days. Results are depicted in FIGS. 34A-34D.
Additional studies were performed with mice treated with 10 mg/kg variant A2A-51 (Group 5), A2A-28 (Group 6), Ab7/PD1TAO15 (Group 7), and AZD4635 (Group 8). Mice were also treated with 20 mg/kg according to the schedule in FIG. 34E. Data is seen in FIGS. 34F-34K.

T1 sequence (P29274 whole entry): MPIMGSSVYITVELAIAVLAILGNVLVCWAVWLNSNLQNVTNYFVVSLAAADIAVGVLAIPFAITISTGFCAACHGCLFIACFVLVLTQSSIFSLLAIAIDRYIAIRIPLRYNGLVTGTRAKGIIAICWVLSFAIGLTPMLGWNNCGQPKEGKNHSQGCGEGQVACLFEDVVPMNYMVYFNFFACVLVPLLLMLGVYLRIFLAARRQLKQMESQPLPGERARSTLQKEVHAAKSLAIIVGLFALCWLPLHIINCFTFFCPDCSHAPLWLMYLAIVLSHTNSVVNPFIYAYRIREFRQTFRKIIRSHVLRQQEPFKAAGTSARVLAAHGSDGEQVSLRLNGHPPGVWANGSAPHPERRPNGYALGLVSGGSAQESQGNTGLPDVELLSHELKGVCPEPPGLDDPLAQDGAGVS

B1: A2A-31: A2AR variant; VH CDR1-3 SEQ ID NO 36/125/214 (antibody, V domains shown)
VH: EVQLVESGGGLVKPGGSLRLSCAASGYLFTDYNMNWVRQAPGKGLEWVGWIYPGTGNTYNDSVKGRFTISRDNSKNTLYLQMNSLRAEDTAVYYCTALYYGSSWERYFDVWGQGTLVTVSS
VL: DIQMTQSPSSLSASVGDRVTITCRASQSISDYLNWYQQKPGKAPKLLIYGASPRESGVPSRFSGSGSGTDFTLTISSLQPEDFATYYCQQDNIWPYTFGQGTKLEIK
Q: For B1, which “T cell activation” value [1] is on record?
A: T cell activation was observed

B2: A2A-17: A2AR variant; VH CDR1-3 SEQ ID NO 22/111/200 (antibody, V domains shown)
VH: EVQLVESGGGLVKPGGSLRLSCAASGFNIGNTYMHWFRQAPGKGLEWVGVINPNYGTTRYNDSVKGRFTISRDNSKNTLYLQMNSLRAEDTAVYYCARDYGSSSFDYWGQGTLVTVSS
VL: DIQMTQSPSSLSASVGDRVTITCKASQSVRNDVVWYQQKPGKAPKLLIYRGNTLRPGVPSRFSGSGSGTDFTLTISSLQPEDFATYYCQQYYGIPLTFGQGTKLEIK
Q: How did the “function in cAMP assays” value [2] turn out when B2 was run?
A: improved function

B3: A2A-24: A2AR variant; VH CDR1-3 SEQ ID NO 29/118/207 (antibody, V domains shown)
VH: EVQLVESGGGLVKPGGSLRLSCAASGFNIGNTYMHWFRQAPGKGLEWVGVINPNYGTTRYNDSVKGRFTISRDNSKNTLYLQMNSLRAEDTAVYYCARDYGSSSFDYWGQGTLVTVSS
VL: DIQMTQSPSSLSASVGDRVTITCKASQSVRNDVVWYQQKPGKAPKLLIYRGNTLRPGVPSRFSGSGSGTDFTLTISSLQPEDFATYYCQQYYGIPLTFGQGTKLEIK
Q: How did the “function in cAMP assays” value [2] turn out when B3 was run?
A: improved function

B4: A2A-53: A2AR variant; VH CDR1-3 SEQ ID NO 58/147/236 (antibody, V domains shown)
VH: EVQLVESGGGLVKPGGSLRLSCAASGFNIIDDYMHWVRQAPGKGLEWVGMITDTGEPTDADSVKGRFTISRDNSKNTLYLQMNSLRAEDTAVYYCVYDYIYAMDYWGQGTLVTVSS
VL: DIQMTQSPSSLSASVGDRVTITCKASQNMGSNVAWYQQKPGKAPKLLIYSASHRSSGVPSRFSGSGSGTDFTLTISSLQPEDFATYYCQQWNYPRITFGQGTKLEIK
Q: With B4 as the molecule, how does the “T cell activation” value [1] read?
A: T cell activation was observed

B5: A2A-19: A2AR variant; VH CDR1-3 SEQ ID NO 24/113/202 (antibody, V domains shown)
VH: EVQLVESGGGLVKPGGSLRLSCAASGFTFSGYAMNWVRQAPGKGLEWVSTISGSGASTYYADSVKGRFTISRDNSKNTLYLQMNSLRAEDTAVYYCAAARGYKRWRLGRRYDYWGQGTLVTVSS
VL: DIQMTQSPSSLSASVGDRVTITCRASQSISDYLNWYQQKPGKAPKLLIYTASTLQSGVPSRFSGSGSGTDFTLTISSLQPEDFATYYCEQSYSTPWTFGGGTKLEIK
Q: For B5, which “function in cAMP assays” value [2] is on record?
A: improved function

B6: A2A-26: A2AR variant; VH CDR1-3 SEQ ID NO 31/120/209 (antibody, V domains shown)
VH: EVQLLESGGGLVQPGGSLRLSCAASGFTFSTYAMGWVRQAPGKGLEWVSGISGSAGSTYYADSVKGRFTISRDNSKNTLYLQMNSLRAEDTAVYYCAAARGHWRWRLGRRYDYWGQGTLVTVSS
VL: DIQMTQSPSSLSASVGDRVTITCRASQTISRYLNWYQQKPGKAPKLLIYSASTLQSGVPSRFSGSGSGTDFTLTISSLQPEDFATYYCQQSYSTPHTFGGGTKVEIK
Q: With B6 as the molecule, how does the “function in cAMP assays” value [2] read?
A: improved function

B7: A2A-27: A2AR variant; VH CDR1-3 SEQ ID NO 32/121/210 (antibody, V domains shown)
VH: EVQLVESGGGLVKPGGSLRLSCAASGFTFSSYAMAWVRQAPGKGLEWVSAISGSGGSTYFADSVKGRFTISRDNSKNTLYLQMNSLRAEDTAVYYCAAARGYWRWRLWRRYDYWGQGTLVTVSS
VL: DIQMTQSPSSLSASVGDRVTITCRASQSIGSYLNWYQQKPGKAPKLLIYGASNLQSGVPSRFSGSGSGTDFTLTISSLQPEDFATYYCQQGYSAPRTFGGGTKLEIK
Q: Which results are given for B7?
A: A2a/A2b antagonist properties [3]: A2a antagonist that cross links with A2b, while also being an A2b antagonist; function in cAMP assays [2]: improved function

B8: A2A-51: A2AR variant; VH CDR1-3 SEQ ID NO 56/145/234 (antibody, V domains shown)
VH: EVQLVESGGGLVKPGGSLRLSCAASGYTFNDYYINWVRQAPGKGLEWVGDINPNNGANIYNDSVKGRFTISRDNSKNTLYLQMNSLRAEDTAVYYCARNYGSSYYALDYWGQGTLVTVSS
VL: DIQMTQSPSSLSASVGDRVTITCSASSSLSYMHWYQQKPGKAPKLLIYGASPRESGVPSRFSGSGSGTDFTLTISSLQPEDFATYYCRQMSSYPPTFGQGTKLEIK
Q: Which results are given for B8?
A: T cell activation [1]: T cell activation was observed; T cell activation with more (high) NECA ([1]; high NECA): still works well; tumor size / tumor volume [4]: ability to reduce tumor volume
